Laboratory results: article PMC8105298

Target: p62 (UniProt Q13501)
Test: co-IP of stathmin-GFP with Flag-p62
Conditions: reference: wild type stathmin-GFP; sites S63

Substance: stathmin (from UniProt P16949) S63A stathmin-GFP
- binding against the reference: weaker
